Patent US20230322953A1 (HARBOUR BIOMED SHANGHAI, published 2023)

Target: T1, human CD3 (TCR/CD3 complex) on human T cells (human, UniProt P07766 23-207)
T1 construct: whole, on cells
Experiment: flow cytometry (FACS) on human T cells, Experiment 1

T1 sequence (P07766 23-207, one chain of several): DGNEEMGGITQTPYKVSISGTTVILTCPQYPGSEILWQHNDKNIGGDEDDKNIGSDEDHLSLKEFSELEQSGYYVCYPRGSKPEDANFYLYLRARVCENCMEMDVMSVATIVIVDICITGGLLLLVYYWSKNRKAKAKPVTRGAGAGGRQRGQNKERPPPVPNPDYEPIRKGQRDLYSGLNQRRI

Binder | Maximum MFI [MFI]
PR001993 (bispecific antibody, human IgG1, kappa, L234A L235A, Structure 12 (Fab(cross VH/VL)-Fc-VH): CD3 Fab from PR000511, BCMA VH from PR001035; IgG1 knob/hole, AAG) chain 1: EVQLLESGGGLVQPGGSLRLSCAASGFTFNTYAMNWVRQAPGKGLEWVSRIRSKYNNYATYYADSVKDRFTISRDDSKSTLYLQMNSLRAEDTAVYYCVRHGNFGNSYVSWFAYWGQGTLVTVSSRTVAAPSVFIFPPSDEQLKSGTASVVCLLNNFYPREAKVQWKVDNALQSGNSQESVTEQDSKDSTYSLSSTLTLSKADYEKHKVYACEVTHQGLSSPVTKSFNRGEC chain 2: QAVVTQEPSLTVSPGGTVTLTCRSSTGAVTTSNYANWVQQKPGQAPRGLIGGTNKRAPWTPARFSGSLLGDKAALTLLGAQPEDEAEYFCALWYSNLWVFGGGTKLTVLSSASTKGPSVFPLAPSSKSTSGGTAALGCLVKDYFPEPVTVSWNSGALTSGVHTFPAVLQSSGLYSLSSVVTVPSSSLGTQTYICNVNHKPSNTKVDKKVEPKSCDKTHTCPPCPAPEAAGGPSVFLFPPKPKDTLMISRTPEVTCVVVDVSHEDPEVKFNWYVDGVEVHNAKTKPREEQYNSTYRVVSVLTVLHQDWLNGKEYKCKVSNKALGAPIEKTISKAKGQPREPQVYTLPPCREEMTKNQVSLWCLVKGFYPSDIAVEWESNGQPENNYKTTPPVLDSDGSFFLYSKLTVDKSRWQQGNVFSCSVMHEALHNHYTQKSLSLSPGK chain 3: EVQLVETGGGLIQPGGSLRLSCAASGFTVSSNYMTWVRQAPGKGLEWVSVIFSGGSTYYADSVKGRFTISRDNSKNTLYLQMNSLRAEDTAVYYCARRIAVAGHDVFDIWGQGTMVTVSSASEPKSSDKTHTCPPCPAPEAAGGPSVFLFPPKPKDTLMISRTPEVTCVVVDVSHEDPEVKFNWYVDGVEVHNAKTKPREEQYNSTYRVVSVLTVLHQDWLNGKEYKCKVSNKALGAPIEKTISKAKGQPREPQVCTLPPSREEMTKNQVSLSCAVKGFYPSDIAVEWESNGQPENNYKTTPPVLDSDGSFFLVSKLTVDKSRWQQGNVFSCSVMHEALHNHYTQKSLSLSPGK | 4780
PR001994 (bispecific antibody, human IgG1, kappa, L234A L235A, Structure 12 (Fab(cross VH/VL)-Fc-VH): CD3 Fab from PR000511, BCMA VH from PR001046; IgG1 knob/hole, AAG) chain 1: EVQLLESGGGLVQPGGSLRLSCAASGFTFNTYAMNWVRQAPGKGLEWVSRIRSKYNNYATYYADSVKDRFTISRDDSKSTLYLQMNSLRAEDTAVYYCVRHGNFGNSYVSWFAYWGQGTLVTVSSRTVAAPSVFIFPPSDEQLKSGTASVVCLLNNFYPREAKVQWKVDNALQSGNSQESVTEQDSKDSTYSLSSTLTLSKADYEKHKVYACEVTHQGLSSPVTKSFNRGEC chain 2: QAVVTQEPSLTVSPGGTVTLTCRSSTGAVTTSNYANWVQQKPGQAPRGLIGGTNKRAPWTPARFSGSLLGDKAALTLLGAQPEDEAEYFCALWYSNLWVFGGGTKLTVLSSASTKGPSVFPLAPSSKSTSGGTAALGCLVKDYFPEPVTVSWNSGALTSGVHTFPAVLQSSGLYSLSSVVTVPSSSLGTQTYICNVNHKPSNTKVDKKVEPKSCDKTHTCPPCPAPEAAGGPSVFLFPPKPKDTLMISRTPEVTCVVVDVSHEDPEVKFNWYVDGVEVHNAKTKPREEQYNSTYRVVSVLTVLHQDWLNGKEYKCKVSNKALGAPIEKTISKAKGQPREPQVYTLPPCREEMTKNQVSLWCLVKGFYPSDIAVEWESNGQPENNYKTTPPVLDSDGSFFLYSKLTVDKSRWQQGNVFSCSVMHEALHNHYTQKSLSLSPGK chain 3: EVQLVETGGGLIQPGGSLRLSCAASGFTVSDNYMTWVRQAPGKGLEWVSVIFSGGNTYYADSVKGRFTISRDNAKNTLYLQMNSLRAEDTALYYCARRNYDDTRGTDVFDIWGQGTMVTVSSASEPKSSDKTHTCPPCPAPEAAGGPSVFLFPPKPKDTLMISRTPEVTCVVVDVSHEDPEVKFNWYVDGVEVHNAKTKPREEQYNSTYRVVSVLTVLHQDWLNGKEYKCKVSNKALGAPIEKTISKAKGQPREPQVCTLPPSREEMTKNQVSLSCAVKGFYPSDIAVEWESNGQPENNYKTTPPVLDSDGSFFLVSKLTVDKSRWQQGNVFSCSVMHEALHNHYTQKSLSLSPGK | 3380
